Measurements taken from paper PMC8560851 (Scientific Reports, 2021).

Legend:
[1] = biological target: T1, VEGF antigen as co-crystallised with the bH1-Fab H3 variants (Homo sapiens, VEGF-A residues 1-110 of …); test: crystal structure; co-crystallization of bH1-Fab H3 variants with the VEGF antigen and X-ray diffraction; methods in Shi et al. (in preparation); details: both partners purified
T1 construct: VEGF-A, human
T1 chain: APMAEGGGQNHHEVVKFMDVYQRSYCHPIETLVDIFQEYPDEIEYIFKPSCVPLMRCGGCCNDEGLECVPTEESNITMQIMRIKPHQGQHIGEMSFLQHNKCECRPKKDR

[2] = biological target: T2, Full-length isoform 165 of human VEGF-A (Homo sapiens, VEGF-A isoform 165, UniProt P15692-4); test: SPR; Biacore T200, 25 °C, PBS with 0.05% Tween 20 and 3.4 mM EDTA; VEGF-A amine-coupled to a CM-5 chip; Fab injected in single cycle kinetics with five increasing concentrations; double referenced; fit to a 1:1 Langmuir binding model; details: both partners purified
T2 construct: VEGF-A isoform 165, human; Immobilised by amine coupling for SPR; Made in HEK cells, so probably the secreted 165-residue form without signal peptide (surmise); source: HEK, recombinant, purified
T2 sequence (P15692 other isoform, or with tags, fused parts or gaps): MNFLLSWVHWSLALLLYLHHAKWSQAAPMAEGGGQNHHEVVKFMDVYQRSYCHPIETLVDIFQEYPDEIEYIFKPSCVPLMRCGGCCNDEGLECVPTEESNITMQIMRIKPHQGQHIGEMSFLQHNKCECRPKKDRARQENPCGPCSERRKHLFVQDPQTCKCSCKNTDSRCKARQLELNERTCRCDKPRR

Row | Binder | binding result [1] | Kd [2] [µM] | binding result [2]
1 | bH1 Fab H3 variant 14_0130 (Fab, V domains shown, also in PDB 7KF1; also called design 14_0130; source: CHO-3E7, co-transfected, purified from supernatant (HisTrap IMAC, SEC Superdex-200)) VH: EVQLVESGGGLVQPGGSLRLSCAASGFNIKDTYIHWVRQAPGKGLEWVARIYPTNGYTRYADSVKGRFTISADTSKNTAYLQMNSLRAEDTAVYYCAKLGIGYYYYGMDVWGQGTLVTVSS VL: DIQMTQSPSSLSASVGDRVTITCRASQDIPRSISGYVAWYQQKPGKAPKLLIYWGSYLYSGVPSRFSGSGSGTDFTLTISSLQPEDFATYYCQQHYTTPPTFGQGTKVEIK | binds | 2.8 | 
2 | bH1 Fab H3 variant 14_0472 (Fab, V domains shown, source: CHO-3E7, co-transfected, purified from supernatant (HisTrap IMAC, SEC Superdex-200)) VH: EVQLVESGGGLVQPGGSLRLSCAASGFNIKDTYIHWVRQAPGKGLEWVARIYPTNGYTRYADSVKGRFTISADTSKNTAYLQMNSLRAEDTAVYYCARGIAVAGAYYFDYWGQGTLVTVSS VL: DIQMTQSPSSLSASVGDRVTITCRASQDIPRSISGYVAWYQQKPGKAPKLLIYWGSYLYSGVPSRFSGSGSGTDFTLTISSLQPEDFATYYCQQHYTTPPTFGQGTKVEIK |  | 59 | 
3 | bH1 Fab H3 variant 14_0688 (Fab, V domains shown, source: CHO-3E7, co-transfected, purified from supernatant (HisTrap IMAC, SEC Superdex-200)) VH: EVQLVESGGGLVQPGGSLRLSCAASGFNIKDTYIHWVRQAPGKGLEWVARIYPTNGYTRYADSVKGRFTISADTSKNTAYLQMNSLRAEDTAVYYCARSGRDAYNYYFDSWGQGTLVTVSS VL: DIQMTQSPSSLSASVGDRVTITCRASQDIPRSISGYVAWYQQKPGKAPKLLIYWGSYLYSGVPSRFSGSGSGTDFTLTISSLQPEDFATYYCQQHYTTPPTFGQGTKVEIK |  | 3.6 | 
4 | bH1 Fab H3 variant 14_0129 (Fab, V domains shown, source: CHO-3E7, co-transfected, purified from supernatant (HisTrap IMAC, SEC Superdex-200)) VH: EVQLVESGGGLVQPGGSLRLSCAASGFNIKDTYIHWVRQAPGKGLEWVARIYPTNGYTRYADSVKGRFTISADTSKNTAYLQMNSLRAEDTAVYYCAKLGGQGSYYHFDYWGQGTLVTVSS VL: DIQMTQSPSSLSASVGDRVTITCRASQDIPRSISGYVAWYQQKPGKAPKLLIYWGSYLYSGVPSRFSGSGSGTDFTLTISSLQPEDFATYYCQQHYTTPPTFGQGTKVEIK |  | 3.48 | 
5 | bH1 Fab H3 variant 16_0325 (Fab, V domains shown, also in PDB 7KEZ; also called design 16_0325; source: CHO-3E7, co-transfected, purified from supernatant (HisTrap IMAC, SEC Superdex-200)) VH: EVQLVESGGGLVQPGGSLRLSCAASGFNIKDTYIHWVRQAPGKGLEWVARIYPTNGYTRYADSVKGRFTISADTSKNTAYLQMNSLRAEDTAVYYCARGGAVAGTGVYYFDYWGQGTLVTVSS VL: DIQMTQSPSSLSASVGDRVTITCRASQDIPRSISGYVAWYQQKPGKAPKLLIYWGSYLYSGVPSRFSGSGSGTDFTLTISSLQPEDFATYYCQQHYTTPPTFGQGTKVEIK | binds |  | 
6 | bH1 Fab H3 variant 14_0490 (Fab, V domains shown, source: CHO-3E7, co-transfected, purified from supernatant (HisTrap IMAC, SEC Superdex-200)) VH: EVQLVESGGGLVQPGGSLRLSCAASGFNIKDTYIHWVRQAPGKGLEWVARIYPTNGYTRYADSVKGRFTISADTSKNTAYLQMNSLRAEDTAVYYCARGNEAGYYYGMDVWGQGTLVTVSS VL: DIQMTQSPSSLSASVGDRVTITCRASQDIPRSISGYVAWYQQKPGKAPKLLIYWGSYLYSGVPSRFSGSGSGTDFTLTISSLQPEDFATYYCQQHYTTPPTFGQGTKVEIK |  | 3.59 | 
7 | bH1 Fab H3 variant 14_0822 (Fab, V domains shown, source: CHO-3E7, co-transfected, purified from supernatant (HisTrap IMAC, SEC Superdex-200)) VH: EVQLVESGGGLVQPGGSLRLSCAASGFNIKDTYIHWVRQAPGKGLEWVARIYPTNGYTRYADSVKGRFTISADTSKNTAYLQMNSLRAEDTAVYYCGRSGPRLGMYYFDFWGQGTLVTVSS VL: DIQMTQSPSSLSASVGDRVTITCRASQDIPRSISGYVAWYQQKPGKAPKLLIYWGSYLYSGVPSRFSGSGSGTDFTLTISSLQPEDFATYYCQQHYTTPPTFGQGTKVEIK |  | > 50 | no binding (tested: > 50,000 nM)
8 | bH1 Fab H3 variant 16_0102 (Fab, V domains shown, source: CHO-3E7, co-transfected, purified from supernatant (HisTrap IMAC, SEC Superdex-200)) VH: EVQLVESGGGLVQPGGSLRLSCAASGFNIKDTYIHWVRQAPGKGLEWVARIYPTNGYTRYADSVKGRFTISADTSKNTAYLQMNSLRAEDTAVYYCAKGWEGTTVTLTPVDYWGQGTLVTVSS VL: DIQMTQSPSSLSASVGDRVTITCRASQDIPRSISGYVAWYQQKPGKAPKLLIYWGSYLYSGVPSRFSGSGSGTDFTLTISSLQPEDFATYYCQQHYTTPPTFGQGTKVEIK |  | 50 | 
9 | bH1 Fab H3 variant 16_0460 (Fab, V domains shown, also called design 16_0460; source: CHO-3E7, co-transfected, purified from supernatant (HisTrap IMAC, SEC Superdex-200)) VH: EVQLVESGGGLVQPGGSLRLSCAASGFNIKDTYIHWVRQAPGKGLEWVARIYPTNGYTRYADSVKGRFTISADTSKNTAYLQMNSLRAEDTAVYYCARPSGGSRSWLYYFDYWGQGTLVTVSS VL: DIQMTQSPSSLSASVGDRVTITCRASQDIPRSISGYVAWYQQKPGKAPKLLIYWGSYLYSGVPSRFSGSGSGTDFTLTISSLQPEDFATYYCQQHYTTPPTFGQGTKVEIK |  | 4.5 | 
10 | parental bH1 Fab (Fab, V domains shown, heavy chain of the bH1 Fab; light chain of the bH1 Fab; also called bH1 antibody; parental antibody; source: CHO-3E7, co-transfected, purified from supernatant (HisTrap IMAC, SEC Superdex-200)) VH: not shown VL: DIQMTQSPSSLSASVGDRVTITCRASQDIPRSISGYVAWYQQKPGKAPKLLIYWGSYLYSGVPSRFSGSGSGTDFTLTISSLQPEDFATYYCQQHYTTPPTFGQGTKVEIK |  | 0.1 | 
11 | bH1 Fab H3 variant 12_0327 (Fab, V domains shown, also in PDB 7KF2; also called design 12_0327; source: CHO-3E7, co-transfected, purified from supernatant (HisTrap IMAC, SEC Superdex-200)) VH: EVQLVESGGGLVQPGGSLRLSCAASGFNIKDTYIHWVRQAPGKGLEWVARIYPTNGYTRYADSVKGRFTISADTSKNTAYLQMNSLRAEDTAVYYCARGRKYSSSFDYWGQGTLVTVSS VL: DIQMTQSPSSLSASVGDRVTITCRASQDIPRSISGYVAWYQQKPGKAPKLLIYWGSYLYSGVPSRFSGSGSGTDFTLTISSLQPEDFATYYCQQHYTTPPTFGQGTKVEIK | binds | 1.6 | 
12 | bH1 Fab H3 variant 15_0485 (Fab, V domains shown, source: CHO-3E7, co-transfected, purified from supernatant (HisTrap IMAC, SEC Superdex-200)) VH: EVQLVESGGGLVQPGGSLRLSCAASGFNIKDTYIHWVRQAPGKGLEWVARIYPTNGYTRYADSVKGRFTISADTSKNTAYLQMNSLRAEDTAVYYCARHGVRGYYYYYMDVWGQGTLVTVSS VL: DIQMTQSPSSLSASVGDRVTITCRASQDIPRSISGYVAWYQQKPGKAPKLLIYWGSYLYSGVPSRFSGSGSGTDFTLTISSLQPEDFATYYCQQHYTTPPTFGQGTKVEIK |  | 0.31 | 
13 | bH1 Fab H3 variant 14_0622 (Fab, V domains shown, source: CHO-3E7, co-transfected, purified from supernatant (HisTrap IMAC, SEC Superdex-200)) VH: EVQLVESGGGLVQPGGSLRLSCAASGFNIKDTYIHWVRQAPGKGLEWVARIYPTNGYTRYADSVKGRFTISADTSKNTAYLQMNSLRAEDTAVYYCARNGGDSYSGYFQHWGQGTLVTVSS VL: DIQMTQSPSSLSASVGDRVTITCRASQDIPRSISGYVAWYQQKPGKAPKLLIYWGSYLYSGVPSRFSGSGSGTDFTLTISSLQPEDFATYYCQQHYTTPPTFGQGTKVEIK |  | 4.97 | 
14 | bH1 Fab H3 variant 13_0346 (Fab, V domains shown, also in PDB 7KF0; also called design 13_0346; source: CHO-3E7, co-transfected, purified from supernatant (HisTrap IMAC, SEC Superdex-200)) VH: EVQLVESGGGLVQPGGSLRLSCAASGFNIKDTYIHWVRQAPGKGLEWVARIYPTNGYTRYADSVKGRFTISADTSKNTAYLQMNSLRAEDTAVYYCARGGSFYYYYMDVWGQGTLVTVSS VL: DIQMTQSPSSLSASVGDRVTITCRASQDIPRSISGYVAWYQQKPGKAPKLLIYWGSYLYSGVPSRFSGSGSGTDFTLTISSLQPEDFATYYCQQHYTTPPTFGQGTKVEIK | binds | 0.08 | 
15 | bH1 Fab H3 variant 14_0480 (Fab, V domains shown, source: CHO-3E7, co-transfected, purified from supernatant (HisTrap IMAC, SEC Superdex-200)) VH: EVQLVESGGGLVQPGGSLRLSCAASGFNIKDTYIHWVRQAPGKGLEWVARIYPTNGYTRYADSVKGRFTISADTSKNTAYLQMNSLRAEDTAVYYCARGLERSGNYYLDYWGQGTLVTVSS VL: DIQMTQSPSSLSASVGDRVTITCRASQDIPRSISGYVAWYQQKPGKAPKLLIYWGSYLYSGVPSRFSGSGSGTDFTLTISSLQPEDFATYYCQQHYTTPPTFGQGTKVEIK |  | 2.72 | 
16 | bH1 Fab H3 variant 14_0905 (Fab, V domains shown, source: CHO-3E7, co-transfected, purified from supernatant (HisTrap IMAC, SEC Superdex-200)) VH: EVQLVESGGGLVQPGGSLRLSCAASGFNIKDTYIHWVRQAPGKGLEWVARIYPTNGYTRYADSVKGRFTISADTSKNTAYLQMNSLRAEDTAVYYCVRGGYLRDYYGMDVWGQGTLVTVSS VL: DIQMTQSPSSLSASVGDRVTITCRASQDIPRSISGYVAWYQQKPGKAPKLLIYWGSYLYSGVPSRFSGSGSGTDFTLTISSLQPEDFATYYCQQHYTTPPTFGQGTKVEIK |  | 5 | 
